Laboratory results: patent US20260202410A1 (NORDIC BIOSCIENCE A S, published 2026)

T1: non-sense coating and standard peptide DQAAGGLRQH
T1 construct: also called non-sense peptide; non-sense standard peptide
T1 peptide: DQAAGGLRQH

T2: truncated peptide QRAFNKGPD
T2 construct: also called truncated selection peptide
T2 peptide: QRAFNKGPD

T3: elongated peptide QRAFNKGPDPG
T3 construct: also called elongated selection peptide
T3 peptide: QRAFNKGPDPG

B1: monoclonal antibody clone NBH313 #46 9H11-1D9-2B6 (antibody, V domains shown)
VH: EVQLVESGGGLVQPKGSLKLSCAASGFTFNIYTMNWVRQAPGKGLEWVARIRSKSENYATYYADSVKDRFTISRDDSQSILYLQMNNLKTEDTAIYYCVRQGIYYDYYGAMDYWGQGTSVTVSS
VL: NIMMTQSPSSLAVSAGEKATMSCKSSQSLLYSSNQMNYLAWYQQKPGQSPKLLIYWASTRESDVPDRFTGSGSGTDFTLTISSVQTEDLAVYYCHQYFSSRTFGGGTKLEIKR
notes: Mouse (Balb/C) hybridoma monoclonal antibody; also called PRO-C9 antibody; the mAb
B2: standard peptide QRAFNKGPDP (PRO-C9 target sequence, C-terminus of type IX collagen alpha-1 chain) (peptide)
peptide: QRAFNKGPDP
notes: Synthetic peptide from Genscript with a free C-terminus; also called selection peptide

Columns and labels:
[1] = molecular target: B2; assay: ELISA screening of hybridoma clones
Experimental: An indirect ELISA performed on streptavidin-coated plates was used for the screening of supernatant reactivity. Biotin-[…] was used as screening peptide, while the standard peptide […] was used to further test the specificity of the clones. Supernatant was collected from the hybridoma cells and purified using HiTrap affinity columns (GEHealthcare Life Science, Little Chalfront, Buckinghamshire, UK) according to manufacturer instructions and antibody isotype was determined using Rapid ELISA Mouse monoclonal antibody Isotyping Kit (Invitrogen, Carlsbad, CA, USA) following the manufacturer's protocol.

[2] = molecular target: T1, non-sense coating and standard peptide …; assay: competitive CLIA, non-sense peptide tested as free standard and as coater
Experimental: (§1) The development of the competitive chemiluminescence immunoassay (CLIA) included several preliminary optimizing experiments where reagents, concentrations, incubation-time and -temperature were analysed by several tests. The PRO-C9 competitive ELISA procedure was as follows: A 96-well streptavidin-coated white microplate (Greiner Bio-One, Kremsminster, Austria) was coated with 5 ng/mL biotinylated synthetic peptide (Biotin-[…] SEQ ID No. 18) dissolved in assay buffer (10 mM phosphate buffered saline (PBS), 1% bovine serum albumin, 0.1% Tween-20, 0.36% Bronidox, 4 g/L NaCl, adjusted to pH 7.4 at 20° C.) and incubated for 30 min at 20° C. with constant shaking (300 rpm) in darkness.
(§2) Next, 20 μL/well of standard peptide (100 ng/mL) and samples were added to the appropriate wells, followed by the addition of 100 μL/well of HRP-labelled antibody diluted in assay buffer to the concertation of 100 ng/mL and incubated for 20 h at 4° C. with constant shaking (300 rpm) in darkness. After each incubation step, wells were washed with standard washing buffer (20 mM Tris, 50 mM NaCl, pH 7.2). […] The relative light units were measured at all wavelengths within 5 min on a microplate luminometer reader (SpectraMax M5, Molecular Devices, CA, USA).
(§3) Two-fold dilutions of four human serum samples were used to assess linearity. Linearity was calculated as a percentage of recovery of the undiluted sample. […]

[3] = molecular target: T2, truncated peptide QRAFNKGPD; assay: competitive CLIA, signal inhibition by two-fold diluted peptide
Experimental: as §1, §2, §3

[4] = molecular target: T3, elongated peptide QRAFNKGPDPG; assay: as above
Experimental: as §1, §2, §3

[5] = molecular target: B1; assay: competitive CLIA: free standard peptide against coated Biotin-… for HRP-labelled antibody
Experimental: Next, 20 μL/well of standard peptide (100 ng/mL) and samples were added to the appropriate wells, followed by the addition of 100 μL/well of HRP-labelled antibody diluted in assay buffer to the concertation of 100 ng/mL and incubated for 20 h at 4° C. with constant shaking (300 rpm) in darkness. After each incubation step, wells were washed with standard washing buffer (20 mM Tris, 50 mM NaCl, pH 7.2). The chemiluminescence substrate (Roche, BM Chemiluminescence ELISA substrate (POD), Basel, Switzerland) working solutions were mixed 15 min before use and 100 μL/well were added to plate and incubated for 3 min at 20° C. with constant shaking (300 rpm) in darkness. The relative light units were measured at all wavelengths within 5 min on a microplate luminometer reader (SpectraMax M5, Molecular Devices, CA, USA).
Accuracy of the assay was measured in healthy human serum samples spiked with standard peptide and a serum sample with a known high PRO-C9 concentration and calculated as the percentage recovery of the measured value and the expected concentration of the peptide or the serum sample with high PRO-C9 plus the concentration of the analyte in serum. […] Recovery percentage was calculated with the normal serum sample as reference. […] The interference was calculated as the percentage recovery of the analyte in non-spiked serum. […]

binding result [1]	binding result [2]	binding result [3]	binding result [4]	IC50 [5]	Binder
binds	no binding	no binding	no binding	–	B1
–	–	–	–	3.62 ng/mL	B2
